Paper PMC2853112

B1: RNA 9 (ssRNA)
RNA: GAUUCAACGCC
modifications: pseudouridine at position 3 (nt 913)
B2: RNA 3 (ssRNA)
RNA: GGAUUCAAC
B3: RNA 6 (ssRNA)
RNA: GGAUUCAACGCC
B4: RNA 12 (ssRNA)
RNA: UCAACGCC
modifications: pseudouridine at position 1 (nt 914)
B5: RNA 8 (ssRNA)
RNA: GAUUCAACGCC
modifications: pseudouridine at position 4 (nt 914)
B6: RNA 4 (ssRNA)
RNA: UUCAACGC
B7: RNA 7 (complete hairpin loop 35) (ssRNA)
RNA: UUGGAUUCAACGCCGG
B8: RNA 1 (ssRNA)
RNA: UUCAAC
B9: RNA 5 (ssRNA)
RNA: UUCAACGCC

Experiments:
MjNep1 [1] = target: T1, MjNep1 (Methanocaldococcus jannaschii, UniProt Q57977 1-205); test: fluorescence quenching
T1 sequence (Q57977 whole entry): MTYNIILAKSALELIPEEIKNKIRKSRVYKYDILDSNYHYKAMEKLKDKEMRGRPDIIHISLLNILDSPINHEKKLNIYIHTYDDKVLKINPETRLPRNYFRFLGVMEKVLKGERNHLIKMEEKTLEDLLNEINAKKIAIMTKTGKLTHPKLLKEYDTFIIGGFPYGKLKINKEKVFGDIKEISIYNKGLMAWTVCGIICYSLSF

MjNep1 [2] = target: T1, MjNep1; test: NMR 15N-HSQC titration

Binder	Kd (MjNep1 [1]) [nM]	Kd (MjNep1 [2]) [nM]
B1	2 ± 1	
B2	1650 ± 380	
B3	7 ± 2	
B4	7 ± 2	
B5	11 ± 4	
B6	77 ± 27	
B7	3 ± 1	
B8		> 1000
B9	8 ± 5	
